Results reported in article PMC9203827.

Target: papain (UniProt P00784)
UniProt P00784, sequence (P00784 134-345): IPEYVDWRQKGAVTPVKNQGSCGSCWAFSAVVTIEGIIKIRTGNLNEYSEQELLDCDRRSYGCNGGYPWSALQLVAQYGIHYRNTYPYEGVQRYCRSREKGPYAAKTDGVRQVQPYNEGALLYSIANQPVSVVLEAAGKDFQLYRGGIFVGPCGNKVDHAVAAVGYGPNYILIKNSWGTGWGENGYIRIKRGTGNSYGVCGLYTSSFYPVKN

recombinant cystatin-B from the red piranha Pygocentrus nattereri (natural protein)
inhibition of papain proteolytic activity on azocasein (absorbance); rCYST-B 0-80 μg (text: μg/μL) pre-incubated with 10 μL papain (0.1 μg/μL) at 28°C for 30 min; inhibition rises from 30 μg/μL: 100%
